According to US20230110188A1 (ARGENX IIP, published 2023):
Positions count from the first letter of the chain named.

Assays:
[1] = target: T1, Human MuSK (R&D Systems, cat. 10189-MK, histidine tag) (human, UniProt O15146 24-495); test: SPR (Biacore), pH 7.4 (summary table, repeats the average of Table 16); pH 7.4
T1 construct: Bought protein; also called human monomeric MuSK-6xhis; not shown: histidine tag (6xhis)
T1 sequence: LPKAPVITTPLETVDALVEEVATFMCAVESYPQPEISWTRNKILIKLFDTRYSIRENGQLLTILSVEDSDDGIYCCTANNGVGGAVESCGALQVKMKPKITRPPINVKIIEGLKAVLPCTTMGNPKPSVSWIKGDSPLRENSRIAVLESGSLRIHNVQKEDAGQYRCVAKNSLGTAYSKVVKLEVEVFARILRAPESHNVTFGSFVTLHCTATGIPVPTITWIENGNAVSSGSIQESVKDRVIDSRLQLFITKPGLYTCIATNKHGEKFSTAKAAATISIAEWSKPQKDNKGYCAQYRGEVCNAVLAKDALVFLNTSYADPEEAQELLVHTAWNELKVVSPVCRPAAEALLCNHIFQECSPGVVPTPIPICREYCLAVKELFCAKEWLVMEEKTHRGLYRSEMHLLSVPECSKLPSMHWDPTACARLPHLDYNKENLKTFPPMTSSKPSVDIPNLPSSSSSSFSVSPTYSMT
Source text: In order to study pH dependent binding of our antibodies to MuSK, the Biacore was used with the same setup as described in the paragraph entitled “Binding affinity for mouse, human and rhesus monkey recombinant MuSK in Biacore”. 6. […] For the other antibodies there is no real difference observed between pH 7.4 and 5.5.

[2] = target: T2, Mouse MuSK as it stands on mouse muscle (neuromuscular junctions, C2C12 myotubes) (mouse, UniProt Q61006 22-868); test: cell-based or functional assay
T2 sequence (looked up): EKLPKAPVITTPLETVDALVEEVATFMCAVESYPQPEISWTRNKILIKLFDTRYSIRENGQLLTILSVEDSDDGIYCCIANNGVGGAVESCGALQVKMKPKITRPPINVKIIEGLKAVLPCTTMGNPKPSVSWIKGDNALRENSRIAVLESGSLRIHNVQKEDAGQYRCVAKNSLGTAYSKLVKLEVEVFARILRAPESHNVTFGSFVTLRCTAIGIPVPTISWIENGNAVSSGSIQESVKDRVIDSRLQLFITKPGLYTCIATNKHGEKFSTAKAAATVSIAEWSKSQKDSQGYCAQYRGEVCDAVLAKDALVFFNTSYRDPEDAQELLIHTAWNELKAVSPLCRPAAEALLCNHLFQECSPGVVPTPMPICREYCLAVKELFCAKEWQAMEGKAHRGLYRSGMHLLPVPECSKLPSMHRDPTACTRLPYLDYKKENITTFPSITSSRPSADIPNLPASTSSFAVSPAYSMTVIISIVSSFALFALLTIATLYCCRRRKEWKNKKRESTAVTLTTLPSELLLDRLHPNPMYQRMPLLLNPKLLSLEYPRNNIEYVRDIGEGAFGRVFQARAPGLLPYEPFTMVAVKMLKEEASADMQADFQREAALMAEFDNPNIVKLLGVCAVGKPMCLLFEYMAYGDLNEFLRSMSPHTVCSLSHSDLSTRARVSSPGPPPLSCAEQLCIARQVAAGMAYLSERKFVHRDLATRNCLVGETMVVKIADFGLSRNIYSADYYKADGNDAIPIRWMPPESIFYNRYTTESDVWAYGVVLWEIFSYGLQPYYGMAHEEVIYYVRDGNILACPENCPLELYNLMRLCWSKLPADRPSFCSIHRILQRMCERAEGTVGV

B1: 3D10a (antibody, human IgG1, kappa, L234A L235A, V domains shown)
VH: EVQLVESGGGLVKPGGSLRLSCAASGFTFSASTMAWVRQAPGKGLEWVSSVSGDSHHIYYADSLKGRFTISRDNAKNSLYLQMNSLRAEDTAVYYCARERLLRLGVGFDSWGQGTLVTVSS
VL: DIQMTQSPSSLSASVGDRVTITCRASQRISGFVNWYQQKPGKAPKLLIYAASTLQSGVPSRFSGSGSGTDFTLTISSLQPEDFATYYCQQSYSPLYTFGQGTKLEIKR
For B1, the koff [1] was 0.00016 s⁻¹ and the “MuSK phosphorylation, % versus agrin (C2C12 myotubes)” value (“MuSK phosphorylation, % versus agrin” for short) [2] was 83 % versus agrin.

B2: 3F6c (antibody, human IgG1, kappa, L234A L235A, V domains shown)
VH: EVQLVESGGGLVKPGGSLRLSCAASGFTFSSYTMDWVRQAPGKGLEWVSSIGSNGDYIYYADSVRGRFTISRDNAKNSLYLQMNSLRAEDTAVYYCARGQLAVAGTHFDYWGQGTLVTVSS
VL: B1 VL with R28K, I29V, S30N, G31K, F32Y, Y96S
In the case of B2, the “MuSK phosphorylation, % versus agrin” value [2] is reported as 100 % versus agrin.

B3: 3D9b (antibody, human IgG1, kappa, L234A L235A, V domains shown)
VH: EVQLVESGGGLVKPGGSLRLSCAASGFTFSTYTMHWVRQAPGKGLEWVSSISSRSAYKYYADSVKGRFTISRDNAKNSLYLQMNSLRAEDTAVYYCARDFFQLGPPRFDSWGQGTLVTVSS
VL: B1 VL with G31S, V33L, A50G, T53N, L95S
With B3 the “MuSK phosphorylation, % versus agrin” value [2] was 205 % versus agrin.

B4: 4D3 (antibody, human IgG1, kappa, L234A L235A, V domains shown)
VH: B1 VH with A31S, S32Y, A35T, V51I, G53S, D54G, S55G, H57Y, A61T, S110F
VL: B1 VL with R28S, F32Y, V33L, P94A
B4 was tested, and the “MuSK phosphorylation, % versus agrin” value [2] was 112 % versus agrin.
